This is an account of results in PMC5716544.

The target of this assay is functional streptavidin subunit with N-terminal cysteine and His-tag (Streptomyces avidinii) (UniProt P22629). Put plainly: refolding of mixed subunits, purification via the His-tag of one subunit, SDS-PAGE of heated and unheated samples; solubilized inclusion bodies mixed at a 1:10 ratio before refolding; tetramer purified via the His-tag of the cysteine-bearing subunit; gel of samples heated 5 min to 95°C (monomers) and of unheated samples (tetramers), room temperature.

The stoichiometry N is the number of molecules, sites or subunits per partner or assembly. As to “functional SA subunit devoid of cysteine and His-tag (domain or fragment)”, the stoichiometry N is 3.
